Where a chain is given by its changes, count along the chain named.
T1: human TREM2 (human, UniProt Q9NZC2 19-230)
T1 construct: on THP-1 WT cells and M2a-like macrophages (endogenous) and on CHO or HEK293T cells overexpressing human TREM2 with DAP12; also called hTREM2
T1 sequence: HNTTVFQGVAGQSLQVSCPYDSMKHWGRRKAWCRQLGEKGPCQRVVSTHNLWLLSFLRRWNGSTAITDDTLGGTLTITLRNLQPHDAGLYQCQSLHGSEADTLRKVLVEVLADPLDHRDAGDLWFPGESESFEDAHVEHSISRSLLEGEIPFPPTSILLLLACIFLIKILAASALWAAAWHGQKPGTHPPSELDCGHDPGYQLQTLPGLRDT

T2: mouse TREM2 (mouse, UniProt Q99NH8 19-227)
T2 construct: whole, on cells
T2 sequence (looked up): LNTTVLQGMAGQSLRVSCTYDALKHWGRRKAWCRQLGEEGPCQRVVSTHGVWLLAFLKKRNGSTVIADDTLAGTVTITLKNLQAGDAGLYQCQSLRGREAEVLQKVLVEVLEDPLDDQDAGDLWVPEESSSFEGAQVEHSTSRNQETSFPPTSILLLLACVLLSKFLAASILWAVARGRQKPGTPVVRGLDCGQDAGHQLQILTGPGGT

T3: cynomolgus TREM2 (cynomolgus, UniProt A0A2K5UY34 49-260)
T3 construct: also called cynoTREM2; cTREM2
T3 sequence: T1 sequence with A10E, W60R, L89F, F125V, I157V, L193P, Y201H

B1: EOS006175 (antibody, V domains shown)
VH: QVQLQESGPGLVKPSGTLSLTCAVSGGSISSSNWWSWVRQPPGKGLEWIGEIYHSGSTNYNPSLKSRVTISVDKSKNQFSLKLSSVTAADTAVYYCARDTKYWGGMDVWGQGTTVTVSS
VL: DIQMTQSPSSLSASVGDRVTITCQASQDISNYLNWYQQKPGKAPKLLIYDASNLATGVPSRFSGSGSGTDFTFTISSLQPEDIATYYCQQYVEAPTFGGGTKVEIK
B2: EOS004283 (antibody, human IgG1, kappa, V domains shown)
VH: QVQLVQSGAEVKKPGSSVKVSCKASGGTFAQYAISWVRQAPGQGLEWMGVIIPDSGTANYAQKFQGRVTITADESTSTAYMELSSLRSEDTAVYYCARTQENTIFDIWGQGTLVTVSS
VL: EIVLTQSPATLSLSPGERATLSCRASQSVSSYLAWFQQKPGQAPRLLIYDASNRATGIPARFSGSGSGTDFTLTISSLEPEDFAVYYCQQDYEWPITFGGGTKVEIKR
B3: EOS006165 (antibody, V domains shown)
VH: B2 VH with A30S, Q31S, V50G, D54I, N102Y, I104A, L113M
VL: EIVLTQSPATLSLSPGERATLSCRASQSVSSYLAWFQQKPGQAPRLLIYDASNRATGIPARFSGSGSGTDFTLTISSLEPEDFAVYYCQQDYHWPITFGGGTKVEIK
B4: EOS006162 (antibody, V domains shown)
VH: B2 VH with A30S, Q31S, V50G, D54I, N102Y, I104L, I107S, L113M
VL: B3 VL
B5: EOS006172 (antibody, V domains shown)
VH: B2 VH with A30S, Q31S, V50G, D54I, N102Y, I104L, L113M
VL: B3 VL with Y92F
B6: MOR044746 (antibody, V domains shown)
VH: QVQLQQSGPGLVKPSQTLSLTCAISGDSVSSSSAAWNWIRQSPSRGLEWLGHIGYRSKWYNEYAVSVKSRITINPDTSKNQFSLQLNSVTPEDTAVYYCARGMYGSVPYKEGYYFDIWGQGTLVTVSS
VL: DIQMTQSPSSLSASVGDRVTITCRASQGISSDLNWYQQKPGKAPKLLIYAASNLQSGVPSRFSGSGSGTDFTLTISSLQPEDFATYYCQQYTDESMTFGQGTKVEIK
notes: benchmark anti-TREM2 antibody from WO2020079580

Each binder was assayed against T1, human TREM2 (assay: flow cytometry, competition with LDL-Alexafluor-488 on CHO cells overexpressing human TREM2/DAP12; only 1 value generated).
Procedure: (§1) Exemplary anti-TREM2 antibodies were tested in order to characterize their ability to enter in competition with TREM2 ligand, LDL, on CHO overexpressing human TREM2/DAP12. Antibodies (dose response curves from 66.65 nM to 0.07 nM) were incubated for 30 min with cells in a soluble fashion, followed by an incubation with LDL coupled with Alexafluor-488 (at 1 μg/mL final) for 30 min. Finally, after 2 washes, cells were acquired on flow cytometer. The median MFI of Alexafluor-488 was used to plot the graphs. Benchmark antibody MOR044746 was used as positive control.

IC50 | Binder
0.28 nM | B1
0.138 nM | B2

The binders below were run against T1, human TREM2 (assay: flow cytometry, THP-1 WT vs THP-1 TREM2 KO cells, 10 ug/ml).
Procedure: (§2) In order to test specificity of selected antibodies to TREM2, binding was tested by flow cytometry on THP-1 TREM2 KO (clone, produced using CRISPR technology in house) and on THP-1 WT. Cells were incubated with selected anti-TREM2 antibodies (final concentration of 10 μg/ml) for 30 min at 4° C. After washing, bound antibodies were detected with a secondary anti-human IgG Fc PE-labelled for 30 min at 4° C. Fluorescence intensity was measured by flow cytometry.

MFI Fold change (THP-1 WT over THP-1 TREM2 KO) | Binder
5.8 fold | B1
2.5 fold | B3
11 fold | B4
8.9 fold | B5

Each binder was assayed against T2, mouse TREM2 (assay: MFI on CT26 cells over-expressing mouse TREM2 and DAP12 vs CT26 empty vector).
Procedure: (§3) Cross-reactivity to mouse TREM2 was assessed using CT26 cells over-expressing mouse TREM2 and DAP12 (Table 23). Eight anti-TREM2 antibodies and both benchmark antibodies were considered cross-reactive to mouse TREM2 (MFI higher than isotype control and fold change of CT26-TREM2 over the CT26 Empty Vector higher than 5). The remaining anti-TREM2 antibodies were considered as being low to not cross-reactive (fold change less than 5). EOS006171 was not tested due to clear non-cross-reactivity preliminary data by octet (data not shown).

MFI Fold change (CT26-TREM2 over CT26-EV) | Binder
3.9 fold | B1
2.3 fold | B3
6.4 fold | B4
4.9 fold | B5

What follows are binders tested against T3, cynomolgus TREM2 (assay: MFI on CHO cells over-expressing cynoTREM2-DAP12).
Procedure: (§4) Cross-reactivity of anti-TREM2 antibodies to cynomolgus TREM2 (cynoTREM2) was assessed using CHO over-expressing cynoTREM2-DAP12 (Table 22). Benchmark antibodies, AB52 and PN-37012, were examined for comparison.

Binding to CHO-cTREM2 MFI | Binder
10200 MFI | B1
8500 MFI | B3
17100 MFI | B4
17200 MFI | B5

What follows are binders tested against T1, human TREM2 (assay: cell-based or functional assay).

Stabilization ratio (Mean of 2 replicates) | Binder
0.39 ratio | B1
0.54 ratio | B3
0.4 ratio | B4
0.46 ratio | B5

Target: T1, human TREM2
Assay: cell-based or functional assay
Remark: another data set of the same source

Fold over isotype control at 66 nM | Binder
0.757 fold | B1
1.03 fold | B3
0.785 fold | B4
0.267 fold | B2
0.59 fold | B5

Each binder was assayed against T1, human TREM2 (assay: flow cytometry, THP-1 WT cells, 10 ug/ml).
Procedure: as §2

Fold over isotype control THP1 WT | Binder
5.5 fold | B1
1.7 fold | B3
9.9 fold | B4
8.7 fold | B5

What follows are binders tested against T1, human TREM2 (assay: flow cytometry, M2a-like macrophages, dose-response).
Procedure: (§5) M2a-like macrophages were produced in vitro from monocytes of healthy donors. Briefly, after PBMCs isolation from peripheral blood using Lymphoprep™ gradient, CD14+ cells were purified and seeded in presence of MCSF 50 ng/ml for 6 days. Macrophages were then cultured with IL-13 and IL-4 at a concentration of 20 ng/ml for two additional days and then used for a cell-based binding assay.
(§6) M2a-like macrophages were incubated with anti-TREM2 antibodies (dose-response curve with 11 concentrations from 10 μg/ml to 0.0001 μg/ml) for 30 min at 4° C. After washing, bound antibodies were detected with a secondary anti-human IgG Fc PE-labelled for 30 min at 4° C. Fluorescence intensity was measured by flow cytometry. Equilibrium dissociation constant (kD) was then calculated for each antibody using median MFI normalized over isotype control.

Kd | Binder
1.06 nM | B1
0.41 nM | B3
0.13 nM | B4
0.09 nM | B5

Each binder was assayed against T3, cynomolgus TREM2 (assay: MFI on CHO cells over-expressing cynoTREM2-DAP12 vs CHO empty vector).
Procedure: as §4

MFI Fold change (CHO-cTREM2 over CHO-EV) | Binder
233 fold | B1
189 fold | B3
393 fold | B4
418 fold | B5

The binders below were run against T1, human TREM2 (assay: flow cytometry, competition with LDL-Alexafluor-488 on CHO cells overexpressing human TREM2/DAP12).
Procedure: as §1

IC50 | Binder
5.29 nM | B3
0.116 nM | B4
0.115 nM | B5

These binders were tested against T1, human TREM2 (assay: flow cytometry, M2a-like macrophages).
Procedure: as §5, §6

Fold over isotype | Binder
5.8 fold | B1
2.2 fold | B3
10.8 fold | B4
9.8 fold | B5

These binders were tested against T2, mouse TREM2 (assay: MFI on CT26 cells over-expressing mouse TREM2 and DAP12; column 'Considered cross-reactive').
Procedure: as §3

Binder | binding result
B3 | no binding (tested: fold change less than 5)
B4 | no binding
B5 | no binding (tested: fold change less than 5)

The binders below were run against T1, human TREM2 (assay: flow cytometry, competition with LDL-Alexafluor-488 on CHO cells overexpressing human TREM2/DAP12; positive control).
Procedure: as §1

IC50 | Binder
0.395 nM | B6

The binders below were run against T2, mouse TREM2 (assay: MFI on CT26 cells over-expressing mouse TREM2 and DAP12).
Procedure: as §3

Binding to CT26-TREM2 MFI | Binder
1390 MFI | B1
649 MFI | B3
2000 MFI | B4
1660 MFI | B5

From patent US20250282868A1 (ITEOS BELGIUM, published 2025)
